How the values were obtained:
Assay in all cases: SPR
[1] = target: T1, Evasin-1 (Rhipicephalus sanguineus, UniProt P0C8E7 21-114)
T1 sequence (looked up): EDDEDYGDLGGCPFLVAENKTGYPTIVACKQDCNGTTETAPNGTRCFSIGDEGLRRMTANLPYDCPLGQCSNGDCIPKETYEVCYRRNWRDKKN

[2] = target: T2, MIP-2 (mouse, UniProt P10889 28-100)
T2 sequence (looked up): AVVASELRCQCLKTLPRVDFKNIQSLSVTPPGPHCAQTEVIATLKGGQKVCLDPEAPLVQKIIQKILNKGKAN

[3] = target: T3, KC (mouse, UniProt P12850 25-96)
T3 sequence (looked up): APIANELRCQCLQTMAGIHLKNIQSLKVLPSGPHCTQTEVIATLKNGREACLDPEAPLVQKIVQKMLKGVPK

[4] = target: T4, CXCL1 (human, UniProt P09341 35-107)
T4 sequence (looked up): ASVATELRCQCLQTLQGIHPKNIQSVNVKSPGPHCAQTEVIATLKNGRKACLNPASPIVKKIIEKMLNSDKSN

B1: CCL3 (ligand, human, UniProt P10147 24-92, looked up)
chain: SLAADTPTACCFSYTSRQIPQNFIADYFETSSQCSKPGVIFLTKRSRQVCADPSEEWVQKYVSDLELSA
- Kd [1]: 0.12 nM
- koff [1]: 0.00243 ± 0.61 s⁻¹
- kon [1]: 1.38e+07 ± 3.54 M⁻¹ s⁻¹

B2: CCL3L1 (ligand, human, UniProt P16619 24-93, looked up)
chain: APLAADTPTACCFSYTSRQIPQNFIADYFETSSQCSKPSVIFLTKRGRQVCADPSEEWVQKYVSDLELSA
- Kd [1]: 0.05 nM
- koff [1]: 0.00067 ± 0.13 s⁻¹
- kon [1]: 1.32e+07 ± 2.9 M⁻¹ s⁻¹

B3: CCL4 (ligand, human, UniProt P13236 24-92, looked up)
chain: APMGSDPPTACCFSYTARKLPRNFVVDYYETSSLCSQPAVVFQTKRSKQVCADPSESWVQEYVYDLELN
- Kd [1]: 0.51 nM
- koff [1]: 0.0022 ± 0.18 s⁻¹
- kon [1]: 4.29e+06 ± 2.58 M⁻¹ s⁻¹

B4: murine MIP-1β (ligand, mouse, UniProt P14097 24-92, looked up)
chain: APMGSDPPTSCCFSYTSRQLHRSFVMDYYETSSLCSKPAVVFLTKRGRQICANPSEPWVTEYMSDLELN
- Kd [1]: 0.15 nM
- koff [1]: 0.00058 ± 0.12 s⁻¹
- kon [1]: 3.84e+06 ± 1.42 M⁻¹ s⁻¹

B5: Evasin-3 (HEK) (natural protein, Rhipicephalus sanguineus, UniProt P0C8E8 21-86, looked up)
chain: LVSTIESRTSGDGADNFDVVSCNKNCTSGQNECPEGCFCGLLGQNKKGHCYKIIGNLSGEPPVVRR
modifications: also: extensively glycosylated
- Kd [2]: 0.4 nM
- koff [2]: 0.00033 ± 0.11 s⁻¹
- kon [2]: 790000 ± 0.9 M⁻¹ s⁻¹
- Kd [3]: 2.25 nM
- koff [3]: 0.00144 ± 0.35 s⁻¹
- kon [3]: 640000 ± 0.58 M⁻¹ s⁻¹
- Kd [4]: 0.34 nM
- koff [4]: 0.00142 ± 0.36 s⁻¹
- kon [4]: 3.95e+06 ± 4.23 M⁻¹ s⁻¹

B6: Evasin-3 (E. coli) (natural protein, Rhipicephalus sanguineus, UniProt P0C8E8 21-86, looked up)
chain: LVSTIESRTSGDGADNFDVVSCNKNCTSGQNECPEGCFCGLLGQNKKGHCYKIIGNLSGEPPVVRR
- Kd [2]: 0.64 nM
- koff [2]: 0.00065 ± 0.25 s⁻¹
- kon [2]: 1.02e+06 ± 0.56 M⁻¹ s⁻¹
- Kd [3]: 5.78 nM
- koff [3]: 0.00185 ± 0.43 s⁻¹
- kon [3]: 320000 ± 0.17 M⁻¹ s⁻¹
- Kd [4]: 0.85 nM
- koff [4]: 0.00222 ± 0.49 s⁻¹
- kon [4]: 2.61e+06 ± 0.69 M⁻¹ s⁻¹

B7: murine MIP-1α (ligand, mouse, UniProt P10855 24-92, looked up)
chain: APYGADTPTACCFSYSRKIPRQFIVDYFETSSLCSQPGVIFLTKRNRQICADSKETWVQEYITDLELNA
- Kd [1]: 0.08 nM
- koff [1]: 0.00118 ± 1.07 s⁻¹
- kon [1]: 1.56e+07 ± 16 M⁻¹ s⁻¹
